In assay [1] the target is h12H4 heavy chain P52bG mutant. Nature of the assay: competitive ELISA; row P52bG (heavy chain CDR2 mutant of h12H4); reference wt h12H4.
The target of assay [2] is h12H4 light chain P95Gz mutant. Briefly: competitive ELISA; row P95Gz (light chain CDR3 mutant of h12H4); reference wt h12H4.
The target in assay [3] is h12H4 heavy chain Y52aF mutant. Nature of the assay: competitive ELISA; row Y52aF (heavy chain CDR2 mutant of h12H4); reference wt h12H4. In general terms: In an ELISA, binding on a coated surface is turned into a signal by an enzyme label.
h12H4 heavy chain Y52aF mutant, sequence (VH, as listed by the source limits assumed, chain 1 of 2): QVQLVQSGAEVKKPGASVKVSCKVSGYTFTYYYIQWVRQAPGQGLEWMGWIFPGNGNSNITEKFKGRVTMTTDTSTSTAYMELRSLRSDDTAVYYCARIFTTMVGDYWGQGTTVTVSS
h12H4 heavy chain Y52aF mutant, sequence (VL, as listed by the source limits assumed, chain 2 of 2): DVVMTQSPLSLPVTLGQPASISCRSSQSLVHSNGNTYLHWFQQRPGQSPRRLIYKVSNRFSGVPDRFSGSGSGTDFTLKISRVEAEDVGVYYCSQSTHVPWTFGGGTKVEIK

Consider one molecule from US20210221876A1.

h12H4 light chain P95Gz mutant, sequence (VH, as listed by the source, chain 1 of 2): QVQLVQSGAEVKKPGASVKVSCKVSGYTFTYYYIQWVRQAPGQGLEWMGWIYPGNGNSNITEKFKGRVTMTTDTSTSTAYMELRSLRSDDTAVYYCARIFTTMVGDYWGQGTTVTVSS
h12H4 light chain P95Gz mutant, sequence (VL, as listed by the source, chain 2 of 2): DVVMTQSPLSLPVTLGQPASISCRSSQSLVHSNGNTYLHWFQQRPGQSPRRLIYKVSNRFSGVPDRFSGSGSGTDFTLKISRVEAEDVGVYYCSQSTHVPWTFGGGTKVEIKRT
h12H4 heavy chain P52bG mutant, sequence (VH, as listed by the source limits assumed, chain 1 of 2): as the sequence (VH, as listed by the source, chain 1 of 2) above, with P53G counted along it
h12H4 heavy chain P52bG mutant, sequence (VL, as listed by the source limits assumed, chain 2 of 2): as the sequence (VL, as listed by the source limits assumed, chain 2 of 2) above

As to SVNVDKQPKYEYSL [peptide … (hCE3C peptide, without the N-terminal Cys)], the IC50 ratio (mutant/wt) (ratio (mutant/wt)) was determined as 1 in assay [1], 1.5 in assay [2] and 1.4 in assay [3].
